Consider 12 molecules from US20150147342A1 (published 2015).

B1: H2M730N (antibody, V domains shown)
VH: EVQLVESGGGLVQPGGSLRLSCAASGFAFRSYWMTWVRQAPGKGLEWVANIQQDGNDKYYVDSVKGRFTISRDNAKNSLYLQMNSLRAEDTAVYYCARDTGIAEAGPFDYWGQGTLVTVSS
VL: DIQMTQSPSTLSASVGDRVSITCRASQTIISWLAWYQQKPGKAPRLLIYKASSLESGVPSRFSGSGSGTEFTLTINSLQPDDFATYYCQQYNRYWTFGQGTKVEIK
B2: H1H685P (antibody, V domains shown)
VH: EVQLVESGGGLVQPGGSLRLSCAASGFTFSSYDIHWVRQATGKGLEWVSAIGPAGDTYYPGSVKGRFTISRENAKNSLYLQMNSLRAGDTAVYYCARGLITFGGLIAPFDYWGQGTLVTVSS
VL: EIVLTQSPGTLSLSPGERATLSCRASQSVSSTYLAWYQQKPGQAPRLLIYGASSRATGIPDRFSGSGSGTDFTLTISRLEPEDFAVYYCQHYDNSQTFGQGTKVEIK
notes: Fully human antibody, human IgG1; also called mAb1
B3: H1H691P (antibody, V domains shown)
VH: EVQLVESGGGLVQPGRSLRLSCAASGFTFDDYAMHWVRQAPGKGLEWVSGISWNSGDIGYADSVKGRFTISRDNAKNSLYLQMNSLRAQDTALYYCAKAYGDYYYFYGMDVWGQGTTVTVS
VL: B2 VL with T32S, Y50F, G51S, H91Q, Q96L, Q100G
B4: H1H690P (antibody, V domains shown)
VH: EVQLVESGGGLVQPGESLRLSCAASGFTFSSYAMSWVRQGPGKGLEWVSSITGSGDTTYYADSVKGRFTISRDNSKNTLYLHMNSLRAEDTAVYYCAKDFLDYSTYLAFDLWGQGTMVTVSS
VL: EIVLTQSPATLSLSPGERATLSCRASQSVSSYLTWYQQKPGQAPRLLSYDASNRATGIPARFSGSGSGTDFTLTISSLEPEDFAVYYCQQRSNWPLTFGGGTKVEIK
B5: H1H749N (antibody, V domains shown)
VH: QVQLVESGGGVVQPGRSLRLSCAASGFTFSSYGMHWVRQAPGKGLEWVAVIWYDEFNKYYADSVKGRFTISRDNSKNTLYLQMNSLRAEDTAVYYCARERESGYSYGFDYWGQGTLVTVSS
VL: EIVMTQSPATLSVSPGERATLSCRAGQSVSSNLAWYQQKPGQAPRLLIYGASTRATGIPARFSGSGSGTEFTLTISSLQSEDFAVYYCQQYNNWWTFGQGTKVEIK
B6: H1H695P (antibody, V domains shown)
VH: QVQLVESGGGVVQPGRSLRLSCAASGFTFSSYGMHWVRQAPGKGLEWVAVMWYDETNKYYADSVKGRFTISRDNSKNTLYLQMNSLRAEDTAVYYCARYSGYEDYYHGMDVWGQGTTVTVS
VL: B5 VL with L11P, G26S, V29I, Q90H, W95I, K102R, V103L
B7: H1H743N (antibody, V domains shown)
VH: EVQLLESGGGLVQPGGSLRLSCAASGFTFRKYAMSWVRQAPGKGLEWVSVISVSGGNTYYADSVKGRFTISRDNSKNTLYLQLNSLRAEDTAVYYCAKDLTDIVLMVYVDYWGQGTLVTVSS
VL: DIQMTQSPSSVSASVGDRVTITCRASQDIDRWLAWYQQKPGKAPKLLIYAASSLQSGVPSRFSGSGSGTDFTLTISTLQPEDFATYYCQQANSLPFTFGGGTKVEIK
B8: H1H693P (antibody, V domains shown)
VH: B4 VH with T52S, D56G, K65E
VL: B7 VL with D28G, D30S, R31S, T77S, L94F, F96R, G100Q
B9: H1H742N (antibody, V domains shown)
VH: DVQLLESGGDLVQPGGSLRLSCEASGFTFRNYVMIWVRQAPGKGLEWVSGISNSGGTTHYTDSVKGRFTISRDNSKNTLYLQINSLRAEDTAVYYCAKGYLDTSLIEGNWFDPWGQGTLVTVSS
VL: NIVMTQSPLSLPVTPGEPASISCRSSQSLLHSNGFNYLNWFLQKPGQSPQLLIYLGSNRASGVPDKFSGSGSGTDFTLNINRVEAEDVGIYFCMQTLQTPLTFGGGTKVEIK
B10: H1H750N (antibody, V domains shown)
VH: QVKLVESGGGVVQPGRSLRVSCAASGFTFSSYGMHWVRQAPGKGLEWLAIIWYDGDNKYYSDSVKGRFTISRDNSKNTLYLQMNSLRAEDTAEYYCVRDASIASRFLDYWGQGTLVTVSS
VL: DIQMTQSPSSLSASIGDRVTITCRATQDINNYLAWFQQKPGKAPKSLIYATSNLQSGVPSKFSGSGSGTDYTLTISSLQPEDFSTYYCQQYHSYPLTFGGGTKVEIK
B11: H1H696P (antibody, V domains shown)
VH: QVQLVESGGGLVKPGGSLRLSCAASGFTFSDYYMSWIRQAPGKGLEWVSYISYTGRTIYYADSVKGRFTISRDNAKNSLYLQMNSLRAEDTAVYYCARDTDYGDFFDYWGQGTLVTVSS
VL: B10 VL with I15V, T26S, D28G, N30S, T51A, N53S, Y71F, S84A, H92N
B12: H1H732N (antibody, V domains shown)
VH: EVQLVESGGGLVRPGGSLRLSCAASGFTFTNAWMSWVRQAPGKGLEWIGQIKSKTDGGTIDYAAPVKGRFTVSRDDSENTLFLQMNSLKTEDTAVYYCAGNWNYVDFDYWGQGTLVTVSS
VL: DIQMTQSPSSLSASVGDRVTITCRASQDIRNDLGWYQQKPGKAPKRLIYAASSLQGGVPSRFSGSGSGTEFTLTISSLQPEDFATYYCLQHNSYPFTFGPGTKVDIK

What is called Kd is the equilibrium constant for the complex coming apart.

Positions count from the first letter of the chain named.

For one assay, the target named is T1, Dimeric fibrinogen-like domain of human Ang-2 conjugated to human IgG1 (human).
T1 construct: also called Dimeric Human Ang-2FD; Human Ang-2FD-hFc
Briefly: SPR, antibody captured, room temp. On the procedure:
(§1) Antibody was captured on a goat anti-mouse IgG polyclonal antibody surface, a goat anti-human κ polyclonal antibody (Southern Biotech, Birmingham, Ala.) surface or a goat anti-human IgG polyclonal antibody (Jackson Immuno Research Lab, West Grove, Pa.) surface created through direct amine coupling to a BIACORE™ CM5 sensor chip to form a captured antibody surface. […] Antigen-antibody binding and dissociation were monitored in real time at room temperature. Kinetic analysis was performed to calculate KD and half-life of antigen/antibody complex dissociation.
In general terms: In SPR one partner is held on a chip, and binding of the other changes the refractive index at the surface.
Turning to B1, the equilibrium dissociation constant (Kd) turned out to be 0.21 nM and the “T1/2” value worked out at 0.783 h.

In the next assay the target is T2, Dimeric fibrinogen-like domain of monkey (Macca fascicularis) Ang-2 conjugated to human IgG1 (monkey (Macca fascicularis)).
T2 construct: also called Dimeric Monkey Ang-2FD; Monkey Ang-2FD-hFc
In words: SPR, antibody captured, room temp. The method, then: as §1
On to B1, for which the Kd worked out at 0.842 nM and the “T1/2” value was 0.61 h.

In the next assay the target is T3, Mouse Ang-2FD-hFc (mouse (Mus musculus)).
T3 construct: Order of the pieces follows the name; also called Dimeric Mouse Ang-2FD
Briefly: ELISA, 16.67 nM antibody + 8 nM mouse Ang-2FD-hFc, on coated hTie-2-mFc (competitor). The method, then:
(§2) Tie-2 is a natural receptor for Ang-2. Anti-Ang-2 antibodies were tested for their ability to block Ang-2 binding to human Tie-2 (hTie-2). hTie-2-mFc (a chimeric construct consisting of human Tie-2 conjugated to mouse IgG; SEQ ID NO:525) was coated onto 96-well plates at a concentration of 2 μg/ml and incubated overnight followed by washing four times in wash buffer (PBS with 0.05% Tween-20). The plate was then blocked with PBS (Irvine Scientific, Santa Ana, Calif.) containing 0.5% BSA (Sigma-Aldrich Corp., St. Louis, Mo.) for one hour at room temperature. In a separate plate, purified anti-Ang-2 antibodies, at a starting concentration of 50 nM, were serially diluted by a factor of three across the plate. […] The antibody/Ang-2FD-Fc mixture was then added to the plate containing hTie-2-mFc and incubated for one hour at room temperature.
On the technique in general: An ELISA detects its analyte on a solid surface through an enzyme-linked reagent.
For B2, the “Percent Blocking of Ang-2FD Binding to Tie-2” value (from here on “Percent Blocking”) was determined as 97.1%.

For the next assay, the target named is T4, Dimeric fibrinogen-like domain of mouse (Mus musculus) Ang-2 conjugated to human IgG1 (mouse (Mus musculus)).
T4 construct: also called Dimeric Mouse Ang-2FD; Mouse Ang-2FD-hFc
Briefly: blocking ELISA, 16.67 nM antibody, coated hTie-2-mFc. The method, then:
as §2
In the case of B1, the “Percent Blocking” value was determined as 55%.

The target in the next assay is T1, Dimeric fibrinogen-like domain of human …. The assay is described as above. On the procedure:
as §2
B1: the “Percent Blocking” value was 98.9%.

For the next assay, the target named is T2, Dimeric fibrinogen-like domain of …. The assay is described as above. The method, then: as §2
With B1, the “Percent Blocking” value was determined as 97.3%.

The next assay deals with T4, Dimeric fibrinogen-like domain of mouse …. In words: SPR, hIgG1 antibody captured, room temp. On the procedure:
as §1
(§3) The above experiment was repeated using selected purified anti-Ang-2 antibodies cloned onto human IgG1.
Turning to B3, the affinity, expressed as Kd, was 0.22 nM and the “T1/2” value was 0.73 h.

As to B4, binding was characterised by a dissociation constant (Kd) of 0.0913 nM and the “T1/2” value was 1.75 h.

In the case of B5, binding was characterised by a dissociation constant (Kd) of 0.177 nM and the “T1/2” value was 1.6 h.

As to B6, binding was characterised by a dissociation constant (Kd) of 0.347 nM and the “T1/2” value amounted to 2.07 h.

Turning to B7, the affinity, expressed as Kd, was 0.124 nM and the “T1/2” value came out at 3.88 h.

Consider B8, for which the Kd is 0.446 nM and the “T1/2” value is 1.06 h.

As for B9, the affinity, expressed as Kd, was 0.276 nM and the “T1/2” value stood at 0.967 h.

Turning to B10, the Kd amounted to 0.218 nM and the “T1/2” value came out at 2.02 h.

Turning to B11, binding was put at a Kd of 0.402 nM and the “T1/2” value was 0.627 h.

For B12, the dissociation constant (Kd) is 0.529 nM and the “T1/2” value was 0.85 h.

The next assay concerns the target T1, Dimeric fibrinogen-like domain of human …. Briefly: SPR, hIgG1 antibody captured, room temp. On the procedure: as §1, §3
Turning to B3, binding was put at a Kd of 0.22 nM and the “T1/2” value was found to be 0.642 h.

Consider B4, for which the affinity, expressed as Kd, was 0.079 nM and the “T1/2” value turned out to be 2.1 h.

As to B5, the Kd is 0.118 nM and the “T1/2” value is 1.82 h.

With B6, binding was characterised by a dissociation constant (Kd) of 0.245 nM and the “T1/2” value was 2.45 h.

Regarding B7, the affinity, expressed as Kd, was 0.0882 nM and the “T1/2” value was 4.23 h.

As for B8, the Kd was 0.5 nM and the “T1/2” value amounted to 0.618 h.

As to B9, binding was characterised by a dissociation constant (Kd) of 0.186 nM and the “T1/2” value was determined as 1.08 h.

Take B10: the dissociation constant Kd amounted to 0.164 nM and the “T1/2” value worked out at 2.12 h.

Take B11: the equilibrium dissociation constant (Kd) was 0.289 nM and the “T1/2” value was 0.647 h.

On to B12, for which binding was put at a Kd of 0.386 nM and the “T1/2” value stood at 0.95 h.

The target of another assay is T2, Dimeric fibrinogen-like domain of …. In words: SPR, hIgG1 antibody captured, room temp. The method, then: as §1, §3
In the case of B3, the Kd amounted to 0.29 nM and the “T1/2” value amounted to 0.683 h.

B4: the Kd turned out to be 0.0556 nM and the “T1/2” value was 3.25 h.

Regarding B5, the Kd stood at 0.407 nM and the “T1/2” value was determined as 2.38 h.

B6: the Kd came to 0.44 nM and the “T1/2” value stood at 1.4 h.

For B7, the equilibrium dissociation constant (Kd) turned out to be 0.0965 nM and the “T1/2” value worked out at 13 h.

Turning to B8, binding was characterised by a dissociation constant (Kd) of 1.17 nM and the “T1/2” value turned out to be 0.293 h.

Regarding B9, the dissociation constant Kd came out at 0.683 nM and the “T1/2” value was determined as 1.55 h.

On to B10, for which the Kd was found to be 0.199 nM and the “T1/2” value amounted to 4.07 h.

B11: binding was characterised by a dissociation constant (Kd) of 0.354 nM and the “T1/2” value came to 0.61 h.

As for B12, the equilibrium dissociation constant (Kd) came out at 0.439 nM and the “T1/2” value was 1.97 h.
